Reference: publication PMC5603727

Legend:
[1] = target: T1, Roquin-1 ROQ domain (SPR, EMSA wild type) (UniProt Q4VGL6 171-326); test: SPR; 2 mM Mg2+, 10 C; SPR: 10 mM HEPES pH 7.4, 150 mM NaCl, 2 mM MgCl2, 0.005% Tween 20, 10 C, ROQ immobilized; EMSA: 20 mM HEPES pH 7.4, 50 mM NaCl, 1 mM MgCl2, 1 mM DTT, 1 ug/ul BS
T1 sequence: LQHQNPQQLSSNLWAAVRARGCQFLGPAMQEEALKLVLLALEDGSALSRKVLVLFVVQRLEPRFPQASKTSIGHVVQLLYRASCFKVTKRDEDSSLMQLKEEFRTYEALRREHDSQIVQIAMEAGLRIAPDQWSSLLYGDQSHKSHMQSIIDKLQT

[2] = target: T2, Roquin-1 ROQ (147-326) (UniProt Q4VGL6 147-326); test: EMSA; SPR: 10 mM HEPES pH 7.4, 150 mM NaCl, 2 mM MgCl2, 0.005% Tween 20, 10 C, ROQ immobilized; EMSA: 20 mM HEPES pH 7.4, 50 mM NaCl, 1 mM MgCl2, 1 mM DTT, 1 ug/ul BS
T2 sequence: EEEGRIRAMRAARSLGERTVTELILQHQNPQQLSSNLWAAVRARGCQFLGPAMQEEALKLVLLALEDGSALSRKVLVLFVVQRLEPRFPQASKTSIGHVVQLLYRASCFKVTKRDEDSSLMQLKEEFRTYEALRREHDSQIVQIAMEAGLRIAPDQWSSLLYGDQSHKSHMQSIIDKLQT

[3] = target: T3, Roquin-1 N-term (UniProt Q4VGL6 2-440); test: as above
T3 sequence: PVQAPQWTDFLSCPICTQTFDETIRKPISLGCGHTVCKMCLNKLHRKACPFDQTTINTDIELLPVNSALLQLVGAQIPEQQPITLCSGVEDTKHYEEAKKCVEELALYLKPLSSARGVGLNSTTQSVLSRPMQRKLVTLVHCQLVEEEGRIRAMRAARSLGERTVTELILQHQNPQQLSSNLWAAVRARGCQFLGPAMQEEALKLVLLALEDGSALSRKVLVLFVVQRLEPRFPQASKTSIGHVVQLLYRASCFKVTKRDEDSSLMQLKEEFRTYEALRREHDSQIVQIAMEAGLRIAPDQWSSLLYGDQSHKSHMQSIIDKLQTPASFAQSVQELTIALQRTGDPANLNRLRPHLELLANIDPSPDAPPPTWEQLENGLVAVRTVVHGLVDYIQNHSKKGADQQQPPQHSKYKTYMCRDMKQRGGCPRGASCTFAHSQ

[4] = target: T4, Roquin-1 ROQ (171-326) (UniProt Q4VGL6 171-326); test: NMR; 298 K; SPR: 10 mM HEPES pH 7.4, 150 mM NaCl, 2 mM MgCl2, 0.005% Tween 20, 10 C, ROQ immobilized; EMSA: 20 mM HEPES pH 7.4, 50 mM NaCl, 1 mM MgCl2, 1 mM DTT, 1 ug/ul BS
T4 sequence: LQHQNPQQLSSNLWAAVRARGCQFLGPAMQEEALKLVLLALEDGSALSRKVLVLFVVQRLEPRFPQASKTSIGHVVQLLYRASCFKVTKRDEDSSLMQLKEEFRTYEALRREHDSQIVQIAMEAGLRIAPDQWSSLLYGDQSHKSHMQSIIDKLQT

UCCACACCCUUCUAGGUGCUGG (structured_RNA) [Ox40 ADE-like Mut2 (G9C)]
binding result [1]: no binding

UCCACACCGUACGAGGUGCUGG (structured_RNA) [Ox40 ADE-like Mut3 (U11A,U13G)]
binding result [1]: no binding

ACAUGUUUUCUGUGAAAACGGAG (structured_RNA) [Tnf CDE SL]
Kd [1]: 42 ± 19 nM

UCCACACCGUUCUAGGUGCUGG (structured_RNA) [Ox40 ADE-like SL]
Kd [1]: 81 ± 22 nM

CUAUGUAUGCUAUGCAUACUACC (structured_RNA) [Ox40 CDE-like SL]
binding result [2]: binds | binding result [3]: binds

UGACUGCGUUUUAGGAGUUA (structured_RNA) [SELEX-derived ADE SL]
binding result [4]: binds

UCCACACAGUUCUAUGUGCUGG (structured_RNA) [Ox40 ADE-like Mut4 (C8A,G15U)]
Kd [1]: 234 ± 63 nM
